Legend:
[1] = target: HMG1 purified from bovine (calf) thymus (bovine) (UniProt P10103); assay: cell-based or functional assay
[2] = target: HMGB1 in DNA immune complexes of human lupus plasma (human) (UniProt P09429); assay: cell-based or functional assay
Sequence of HMGB1 in DNA immune complexes of human lupus plasma (human) (P09429 whole entry, one chain of several): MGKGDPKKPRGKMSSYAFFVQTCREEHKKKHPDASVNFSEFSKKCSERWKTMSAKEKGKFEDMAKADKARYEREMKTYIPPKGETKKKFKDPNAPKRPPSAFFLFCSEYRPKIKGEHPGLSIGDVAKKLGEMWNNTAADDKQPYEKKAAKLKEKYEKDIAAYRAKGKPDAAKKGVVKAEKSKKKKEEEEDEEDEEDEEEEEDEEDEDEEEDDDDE

Sequence of HMG1 purified from bovine (calf) thymus (bovine) (P10103 2-215 limits assumed): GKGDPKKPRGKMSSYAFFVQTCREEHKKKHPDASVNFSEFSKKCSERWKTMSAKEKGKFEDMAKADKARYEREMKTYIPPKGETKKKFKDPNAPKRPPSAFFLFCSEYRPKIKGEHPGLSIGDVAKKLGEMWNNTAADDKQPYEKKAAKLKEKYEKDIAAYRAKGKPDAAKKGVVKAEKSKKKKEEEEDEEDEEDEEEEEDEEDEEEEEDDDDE

Substance: RAGE-Fc fusion protein (species not stated)
- IFN-a release from mouse bone marrow cells, HMGB/CpG-A mediated enhanced TLR9 signaling [1]: > 95%
- decrease in IFIT1 mRNA in human PBMC stimulated with 20% lupus plasma [2]: 75%

From patent US20080311122A1, “Antagonists of Hmgb1 and/or Rage and Methods of Use Thereof” (Medimmune, LLC, priority 2005, published 2008)
